In paper PMC4941327:

Target: mAb04-MICA antibody fusion protein (human) (UniProt Q29983)
Experiment: SPR; Biacore X100; mAb04-MICA captured on a CM5 chip by anti-human IgG (Fc) antibody; soluble NKG2D injected at 7.8125-250 nM; HBS-EP pH 7.4; bivalent analyte model (the results say 2:1 binding model)

Chain of UniProt Q29983 (Q29983 whole entry, looked up, the tested form may be a part): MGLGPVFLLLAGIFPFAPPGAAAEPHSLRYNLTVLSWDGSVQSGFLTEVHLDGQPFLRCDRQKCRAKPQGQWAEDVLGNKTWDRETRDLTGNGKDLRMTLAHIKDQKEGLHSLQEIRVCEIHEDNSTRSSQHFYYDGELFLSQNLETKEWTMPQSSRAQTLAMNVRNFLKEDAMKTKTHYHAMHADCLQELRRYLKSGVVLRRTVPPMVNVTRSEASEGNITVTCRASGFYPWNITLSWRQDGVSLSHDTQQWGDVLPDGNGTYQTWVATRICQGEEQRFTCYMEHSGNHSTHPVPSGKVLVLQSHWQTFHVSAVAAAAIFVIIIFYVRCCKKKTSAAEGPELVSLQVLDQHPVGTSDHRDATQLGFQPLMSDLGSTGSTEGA

Kd: 0.71 µM
koff: 188 s⁻¹
kon: 2.65e+08 M⁻¹ s⁻¹
Substance: soluble recombinant NKG2D (from UniProt P26718 1-216) (receptor)
